Source: patent US20210155689A1 (SHANGHAI PHARMAEXPLORER, published 2021)

T1: LAG-3-hFc protein (human LAG-3 extracellular region with hFc tag) (human, UniProt P18627 23-450)
T1 construct: also called hLAG-3-hFc; LAG-3 protein; not shown: human IgG Fc fragment (hFc) of the pCpC vector
T1 sequence: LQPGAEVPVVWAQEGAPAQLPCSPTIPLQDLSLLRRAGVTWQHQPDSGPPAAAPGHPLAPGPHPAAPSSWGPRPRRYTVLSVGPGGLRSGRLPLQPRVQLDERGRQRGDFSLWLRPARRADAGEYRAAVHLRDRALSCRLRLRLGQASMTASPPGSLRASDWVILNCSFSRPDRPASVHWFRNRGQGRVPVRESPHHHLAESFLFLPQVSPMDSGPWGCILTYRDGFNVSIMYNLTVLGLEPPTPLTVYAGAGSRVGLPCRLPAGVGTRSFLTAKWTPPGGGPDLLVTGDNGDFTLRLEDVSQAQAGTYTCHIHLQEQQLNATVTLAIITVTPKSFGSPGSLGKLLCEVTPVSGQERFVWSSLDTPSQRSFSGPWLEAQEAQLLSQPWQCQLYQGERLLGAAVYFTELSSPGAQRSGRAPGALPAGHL

T2: human LAG-3 on cells (HEK293-hLAG-3 stable cell line) (human, UniProt P18627 23-525)
T2 sequence: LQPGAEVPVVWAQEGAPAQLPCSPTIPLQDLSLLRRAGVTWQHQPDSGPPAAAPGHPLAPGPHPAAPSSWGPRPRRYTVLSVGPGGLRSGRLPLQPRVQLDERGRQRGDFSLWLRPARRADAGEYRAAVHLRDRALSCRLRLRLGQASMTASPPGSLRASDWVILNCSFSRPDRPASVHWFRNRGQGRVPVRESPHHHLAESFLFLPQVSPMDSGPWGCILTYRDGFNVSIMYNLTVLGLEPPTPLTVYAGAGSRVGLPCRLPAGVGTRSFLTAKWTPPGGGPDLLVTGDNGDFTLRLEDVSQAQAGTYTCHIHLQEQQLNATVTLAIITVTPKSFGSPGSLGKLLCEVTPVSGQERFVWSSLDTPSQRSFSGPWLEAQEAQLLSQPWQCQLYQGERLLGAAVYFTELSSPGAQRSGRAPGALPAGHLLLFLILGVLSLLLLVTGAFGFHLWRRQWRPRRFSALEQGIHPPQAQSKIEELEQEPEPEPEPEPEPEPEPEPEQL

T3: human LAG-3 protein with hFc tag (hLAG-3-hFc protein) (human, UniProt P18627 23-450)
T3 construct: also called immunogen 1; LAG-3 extracellular domain protein; not shown: human IgG Fc fragment (hFc) of the pCpC vector
T3 sequence: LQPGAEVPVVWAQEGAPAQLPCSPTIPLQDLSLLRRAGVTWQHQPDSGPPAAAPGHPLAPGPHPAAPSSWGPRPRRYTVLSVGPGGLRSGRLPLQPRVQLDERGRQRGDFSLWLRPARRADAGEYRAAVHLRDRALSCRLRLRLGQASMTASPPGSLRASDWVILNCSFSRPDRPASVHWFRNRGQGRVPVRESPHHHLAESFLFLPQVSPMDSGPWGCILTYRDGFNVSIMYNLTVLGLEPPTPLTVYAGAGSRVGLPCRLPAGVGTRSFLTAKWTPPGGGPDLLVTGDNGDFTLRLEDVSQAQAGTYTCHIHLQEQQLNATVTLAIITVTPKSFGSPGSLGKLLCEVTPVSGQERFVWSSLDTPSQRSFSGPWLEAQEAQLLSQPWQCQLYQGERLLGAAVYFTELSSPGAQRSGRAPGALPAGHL


Key:
[1] = target: T1, LAG-3-hFc protein (human LAG-3 …); experiment: FACS, inhibition of LAG-3-hFc binding to MHC II on Raji cells, antibody 200.000 nM
Protocol: (§1) The FACS reaction plate incubating the Raji cells was centrifuged to discard the supernatant. The above mixture was added as 100 μl per well to Raji cells and incubated on ice for 1-2 hours. The plate was washed twice with blocking solution (PBS, 2% fetal bovine serum) by centrifugation, added with 100 microliters of fluorescent (Alexa 488)-labeled secondary antibodies per well, and incubated on ice for 1.0 hours. The plate was washed 2-3 times by centrifugation with blocking solution (PBS, 2% fetal bovine serum), added with 100 microliters of PBS per well to suspend cells, and detected using FACS (FACS Calibur, BD) and the results were analyzed. Wherein, the IgG control was murine IgG, and the data in the table is the inhibition rate (%).

[2] = target: T2, human LAG-3 on cells (HEK293-hLAG-3 …); experiment: cell-based or functional assay
[3] = target: T1, LAG-3-hFc protein (human LAG-3 …); experiment: FACS, inhibition of LAG-3-hFc binding to MHC II on Raji cells, antibody 2.469 nM
Protocol: as §1

[4] = target: T3, human LAG-3 protein with hFc tag …; experiment: FACS, blocks LAG-3-hFc binding to MHC II on Raji; 0.000 nM
Protocol: as §1

Row | Binder | Inhibition rate (%) [1] [%] | IL-2 production, SEB-dependent PBMC stimulation test, 0.0032 ug/ml, N = 1 [2] [pg/mL] | IL-2 production, SEB-dependent PBMC stimulation test, 0.0032 ug/ml, N = 2 [2] [pg/mL] | IL-2 production, SEB-dependent PBMC stimulation test, 0.016 ug/ml, N = 1 [2] [pg/mL] | IL-2 production, SEB-dependent PBMC stimulation test, 0.016 ug/ml, N = 2 [2] [pg/mL] | IL-2 production, SEB-dependent PBMC stimulation test, 0.08 ug/ml, N = 1 [2] [pg/mL] | IL-2 production, SEB-dependent PBMC stimulation test, 0.08 ug/ml, N = 2 [2] [pg/mL] | IL-2 production, SEB-dependent PBMC stimulation test, 0.4 ug/ml, N = 1 [2] [pg/mL] | IL-2 production, SEB-dependent PBMC stimulation test, 0.4 ug/ml, N = 2 [2] [pg/mL] | IL-2 production, SEB-dependent PBMC stimulation test, 2 ug/ml, N = 1 [2] [pg/mL] | IL-2 production, SEB-dependent PBMC stimulation test, 2 ug/ml, N = 2 [2] [pg/mL] | IL-2 production, SEB-dependent PBMC stimulation test, 10 ug/ml, N = 1 [2] [pg/mL] | IL-2 production, SEB-dependent PBMC stimulation test, 10 ug/ml, N = 2 [2] [pg/mL] | Inhibition rate (%) [3] [%] | Inhibition rate (%) [4] [%]
1 | 556F6B8 mouse-human chimeric antibody (antibody, V domains shown, also called mAb123-556F6B8; 556F8B8) VH: RVQLKQSGPGLVQPSQSLSITCTVSGFSLIKYGVHWVRQSPGEGLEWLGVIWRGGITDYNAAFMSRLSITKDNSKSQVFFKMNSLQADDTAIYYCAKWDGPLAMDYWGQGTSVTVSS VL: DIVMTQSHKFLSTSVGDRVSITCKASQDVGTTVAWYQQKPGQSPKLLIYWASTRHTGVPDRFTGSGSGTDFTLTISNVQSEDLADYFCQQYSSYPYTFGGGTKLEIK | 95.2 | 1780 | 1910 | 1430 | 2010 | 1780 | 1980 | 2570 | 2810 | 3800 | 4010 | 2610 | 3260 | 41.5 | –
2 | 556F6B8 (mouse antibody purified from hybridoma) (antibody, V domains shown, also called mAb123-556F6B8) VH: RVQLKQSGPGLVQPSQSLSITCTVSGFSLIKYGVHWVRQSPGEGLEWLGVIWRGGITDYNAAFMSRLSITKDNSKSQVFFKMNSLQADDTAIYYCAKWDGPLAMDYWGQGTSVTVSS VL: DIVMTQSHKFLSTSVGDRVSITCKASQDVGTTVAWYQQKPGQSPKLLIYWASTRHTGVPDRFTGSGSGTDFTLTISNVQSEDLADYFCQQYSSYPYTFGGGTKLEIK | – | – | – | – | – | – | – | – | – | – | – | – | – | – | -10.7
3 | 405B8H3 (mouse antibody purified from hybridoma) (antibody, V domains shown, also called mAb103-405B8H3; 405B81-13) VH: QVQLQQSGAELVRPGASVTLSCKASGYTFTDYEMHWVKQTPVHGLEWIGATDPETGNSAYNQKFKGKAIMTADKSSSTAYMELRSLTSEDSAVYYCISTGWNDWGQGTSLTVSS VL: DIKMTQSPSSMYASLGERVTITCKASQDINSYLSWFQQKPGKSPKTLIYRADRLLDGVPSRFSGSGSGQDYSLTISSLEYGDMGIYYCLQYDEFPYTFGGGTKLEIK | – | – | – | – | – | – | – | – | – | – | – | – | – | – | 0.3
4 | 405B8H3 mouse-human chimeric antibody (antibody, V domains shown, also called mAb103-405B8H3) VH: QVQLQQSGAELVRPGASVTLSCKASGYTFTDYEMHWVKQTPVHGLEWIGATDPETGNSAYNQKFKGKAIMTADKSSSTAYMELRSLTSEDSAVYYCISTGWNDWGQGTSLTVSS VL: DIKMTQSPSSMYASLGERVTITCKASQDINSYLSWFQQKPGKSPKTLIYRADRLLDGVPSRFSGSGSGQDYSLTISSLEYGDMGIYYCLQYDEFPYTFGGGTKLEIK | 95.2 | 2000 | 1600 | 1880 | 1770 | 1800 | 1840 | 2790 | 3240 | 2700 | 2850 | 3280 | 3160 | 55.8 | –
5 | 105F1E10 (mouse antibody purified from hybridoma) (antibody, V domains shown, also called mAb009-105F1E10) VH: EVQLQQSGPELVKPGASVKMSCRASGYTFTDFKMHWMKQSHGKSLEWIGYIAPNNGGTAYNQKFRGKATLTVNESSNTAYMELRSLTSEDSAVYYCVDWDDVDYWGQGTTLTVSS VL: DIKMTQSPSSMYASLGERVTITCKASQDINSYLSWFQQKSGKSPKTLIYRANRLVDGVPSRFSGSGSGQDYSLTISSLEYEDMGIYYCLQYVEFPLTFGAGTKLELK | – | – | – | – | – | – | – | – | – | – | – | – | – | – | -14
6 | 105F1E10 mouse-human chimeric antibody (antibody, V domains shown, also called mAb009-105F1E10) VH: EVQLQQSGPELVKPGASVKMSCRASGYTFTDFKMHWMKQSHGKSLEWIGYIAPNNGGTAYNQKFRGKATLTVNESSNTAYMELRSLTSEDSAVYYCVDWDDVDYWGQGTTLTVSS VL: DIKMTQSPSSMYASLGERVTITCKASQDINSYLSWFQQKSGKSPKTLIYRANRLVDGVPSRFSGSGSGQDYSLTISSLEYEDMGIYYCLQYVEFPLTFGAGTKLELK | 96 | 2340 | 1840 | 1720 | 1520 | 2130 | 1770 | 2550 | 2570 | 3970 | 3660 | 3740 | 3650 | 8.2 | –
7 | 409B11E12 (mouse antibody purified from hybridoma) (antibody, V domains shown, also called mAb104-409B11E12) VH: QVQLQQSGAELVRPGASVTLSCKASGYTFTDYEMHWVKQTTVHGLEWIGATDPETSYSAYNQKFKGKAILTADKSSSTAYMELRSLTSEDSAVYYCIATGWNDWGQGTSLTVSS VL: DLKMTQSPSSMYASLGERVTITCKASQDINSYLSWFQQKPGKSPKTLIYRANRLLDGVPSRFSGSGSGQDYSLTISSLEYEDMGIYYCLQYDEFPYTFGGGTKLEIK | – | – | – | – | – | – | – | – | – | – | – | – | – | – | -21.2
8 | 409B11E12 mouse-human chimeric antibody (antibody, V domains shown, also called mAb104-409B11E12) VH: QVQLQQSGAELVRPGASVTLSCKASGYTFTDYEMHWVKQTTVHGLEWIGATDPETSYSAYNQKFKGKAILTADKSSSTAYMELRSLTSEDSAVYYCIATGWNDWGQGTSLTVSS VL: DLKMTQSPSSMYASLGERVTITCKASQDINSYLSWFQQKPGKSPKTLIYRANRLLDGVPSRFSGSGSGQDYSLTISSLEYEDMGIYYCLQYDEFPYTFGGGTKLEIK | 94.8 | 1340 | 1190 | 1720 | 1230 | 1550 | 1530 | 2820 | 1990 | 2540 | 1920 | 3140 | 3010 | 59.2 | –
9 | 409D4E10 (mouse antibody purified from hybridoma) (antibody, V domains shown, also called mAb112-409D4E10) VH: QVQLQQSGAELVRPGASVTLSCKASGNTFTDYEMHWVKQTPVHGLEWIGATDPETDNTAYNQKFKGKAILTTDKSSSTAYMELRSLTSEDSAVYYCITSGWNDWGQGTSLTVSS VL: DIKMTQSPSSMYASLGERVTITCKASQDINSYLSWFQQKPGKSPKTLIYRANRLLDGVPSRFSGSGSGQDYSLTISSLEYEDMGIYYCLQYNEFPYTFGGGTKLEIK | – | – | – | – | – | – | – | – | – | – | – | – | – | – | -21.4
